Numbering of substitutions follows the chain as printed. Where “and” joins values, the source holds several entries; their conditions need not be identical. Equal values may be shown once.
B1: 27G8 (antibody, V domains shown)
VH: QVQLQQSDAELVKPGASVKISCKVSGYTFTDHTIHWMKQRPEQGLEWIGYIYPRDGYPKFNEKFKGKATLTADKSSSTAYMQLNSLTSEDSAVYFCARRPPYYAMDYWGQGTSVAVSS
VL: DIVLTQSPASLAVSLGQRATISCRASKSVSTSGYSYIHWYQQKPGQPPKFLIYLASNLDSGVPARFSGSGSGTDFTLNIHPVEEEDAATYYCQHSRELPYTFGGGTKLEIK
B2: 26F7 (antibody, V domains shown)
VH: EVQLQQSGPELVKPGASVKISCKASGYTFTDYYMNWVRQSHGESLEWIGDFNHNNDVITYNPKFKGKVTLTVEKSSTTAYMELRSLSSEDSAVYYCARGLRGYYAMDYWGQGTSVTVSS
VL: B1 VL with S30R, T31F, G33D, S35F, I37M, F50L, D59E, H94N
B3: 9D12 (antibody, V domains shown)
VH: QVQLKESGPVLVAPSQSLSITCTVSGFSLNNFAISWVRQPPGKGLEWLGAIWTGGGTNYNSALKSRLSISKDNSKSQVFLKMNSLQTDDTARYYCVRKDYSYGGAMDYWGQGTSVTVSS
VL: DIALTQSPASLAVSLGQRATISCRASETINFYGTSFMHWYQQKPGQSPKLLIYRASNLESGIPARFSGSGSRTDFTLTINPVEADDVATYYCQQTNEDPYTFGGGTKLEIK
B4: 73H10 (antibody, V domains shown)
VH: EVQLQQSGPELVKPGASVKMSCKASGYTFTRYVMHWVKQKPGQGLEWIGYINPYNDVTKYNEKFKGKATLTSDRSSSTAYMKLSSLTSEDSAVYYCARNWDVPYWGQGTLITVSA
VL: DIQMTQSPVFLSASVGETVTITCRASENIDSYLAWYQQKQGKSPQLLVFAARNLADGVPSRFSGSGSGTQYSLKINRMQSEDVARYYCQHYYSTPFTFGSGTKLEIE
B5: 74H3 (antibody, V domains shown)
VH: B4 VH with V33L, V57G, K63R, R74K, K82E, I111V
VL: DIQMTQSPASLSASVGETVIFTCRASENIDSYLAWYQQKQGKSPQLLVYAATNLADGVPSRFSGSGSGTQYSLKINSLQSEDVARYYCLHYYSTPFTFGSGTELEIK
B6: 34D9 (antibody, V domains shown)
VH: EVQLQQSGPELVKPGASVKIPCKASGYTFTDYNMDWVKKSHGKSLEWIGDINPHNGGTIYNQKFKGKATLTVDKSSSTAHMELRSLTSEDTAVYYCARNYYGSSYGWYFDVWGTGTTVTVSS
VL: DIMMTQSHKFMSTSVGDRVSITCKASQDVGNAVVWYQQKPGQSPKLLIYWASTRHIGVPDRFTGSGSGTDFTLTITNVQSEDLADYFCQQYSSYLTFGAGTKLELK
B7: Mouse antibody 6B8 (antibody, V domains shown)
VH: QVQLQQSDAELVKPGTSVKTSCKISGNTFTDQTIHWMKQRPEQGLEWIGYIYPRDDSPKYNENFKGKATLTADKSSSTAYMQLNSLTSEDSAVYFCAIPDRSGYAWFIYWGQGTLVTVSS
VL: DIVMTQSHKFLSTSVGDRVTITCKASRDVAIAVAWYQQKPGQSPKLLLFWASTRHTGVPDRFTGSGSRTDFTLTISNVQSEDLADYFCHQYSSYPFTFGSGTKLEIK
B8: 18C4 (antibody, V domains shown)
VH: EVQLQQSGPEVVKPGASVKMSCKASGYTFTSSVIHWVKQKAGQGLEWIGYINPYNDGTKYNEKFKGKATLTSDRSSSTAYMELSSLTSEDSAVYYCTRRLDEAYWGQGTLVTVSA
VL: DIVMTQSPATLSVTPGDRVSLSCRASQSISEYLHWYQQKSHESPRLLIKYASQSISGIPSRFSGSGSGSDFTLSINSVEPEDVGVYYCQNGHSFPFTFGSGTKLEIK
B9: 24A5 (antibody, V domains shown)
VH: B8 VH with V11L, S31T, V33I, I34M, A41P, N55D, G57V, R74K, T97V, L100W
VL: B8 VL with D17N, E31D, D70N
B10: Chimeric 22E2 (antibody, V domains shown)
VH: B8 VH with V11L, V33I, K40R, A41P, N55D, G57V, R74K, T97A, L100W, A103S
VL: B8 VL with E31V, H41P
B11: 31H9 (antibody, V domains shown)
VH: B4 VH with V33L, V57G, K59N, R74K, K82E, A97S, R98L, V102Y, P103A, I111V
VL: B8 VL with E31D, F96Y, S100G
B12: 18D3 (antibody, V domains shown)
VH: EVQLQQSGPELVKPGASVKMSCKASGYTFTRYLIHWVKQKPGQGLEWIGYINPYNDGTKYNEKFKGKATLTSDKSSSTAYMELSSLTSEDSAVYYCTSNWDLDYWGQGTTLTVSS
VL: B8 VL with E31D, H34Y, Y50F, S63T, N76D, E81D, Y86F, Y87F, S100G
B13: 22E2 (antibody, V domains shown)
VH: B8 VH with V11L, V33I, K40R, A41P, N55D, G57V, R74K, T97A, L100W, A103S
VL: B8 VL with E31V, H41P
B14: 15C11 (antibody, V domains shown)
VH: EVQLQQSGPVLVKPGASVKMSCKASGYTFTDYYMNWVKQSHGKSLEWIGVIIPYNGGTSYNQKFKGKATLTVDKSSSTAYMELNSLTSEDSAVYYCARDGHRWYFDVWGTGTTVTVSS
VL: DVVMTQTPLSLPVSLGDQASISCRSSQSLVHSNGNTYLHWYLQKPGQSPKLLIYKVSNRFSGVPDRFSGSGSGTDFTLKINRVEAEDLGVYFCSQSTHVPYTFGGGTQLEIK
B15: 34G3 (antibody, V domains shown)
VH: EFQLQQSGPELVKPGASVKISCKASGYSFTDYNMNWVKQSKGKSLEWIGVIIPNYGFTSYNQNFKGKATLTVDQSSSTAHMQLNSVTSEDSAVYYCVRDGGILLWYLDVWGTGTTVTVSS
VL: B14 VL with N81S, Q108K, K112N
B16: 2D1 (antibody, V domains shown)
VH: B3 VH with V10G, N30T, N31T, F32Y, P40S, A50V, N58K, V96A, S101N
VL: DIVLTQSPGSLAVSLGQRATISCRTSESVYSYGQNFIHWYQQKPGQPPKLLIYRASNLESGIPARFSGSGSRTDFTLTMNPVEADDVATYYCQQTNEDPYTFGGGTKLEIR
B17: 18E5 (antibody, V domains shown)
VH: B12 VH with S17A
VL: B8 VL with E31D, H34Y, Y50F, S63T, N76D, E81D, Y86F, Y87F, S100G
B18: 20E8 (antibody, V domains shown)
VH: B8 VH with V11L, I34M, K59Q, R74K, S75F
VL: B8 VL
B19: 43F5 (antibody, V domains shown)
VH: EVQLQQSGPELVKPGASVKISCRASGYSFTGYYMNWVKQSPEKSLEWIGEIIPTTGGTSYNQKFKAKATLTVDKSSSTAYMQLKSLTSEDSAVYYCARESGGFYWYFDVWGTGTTVTVSS
VL: B14 VL with T7S, Q43L, N81S, Q108K

Biological target: T1, recombinant human IL-23 (human, UniProt P29460 23-328)
T1 sequence 1: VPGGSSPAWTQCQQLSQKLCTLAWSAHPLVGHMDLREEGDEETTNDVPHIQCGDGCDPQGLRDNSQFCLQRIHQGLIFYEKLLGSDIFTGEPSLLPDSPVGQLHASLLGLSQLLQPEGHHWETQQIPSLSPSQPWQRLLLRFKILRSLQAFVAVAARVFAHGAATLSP
T1 sequence 2: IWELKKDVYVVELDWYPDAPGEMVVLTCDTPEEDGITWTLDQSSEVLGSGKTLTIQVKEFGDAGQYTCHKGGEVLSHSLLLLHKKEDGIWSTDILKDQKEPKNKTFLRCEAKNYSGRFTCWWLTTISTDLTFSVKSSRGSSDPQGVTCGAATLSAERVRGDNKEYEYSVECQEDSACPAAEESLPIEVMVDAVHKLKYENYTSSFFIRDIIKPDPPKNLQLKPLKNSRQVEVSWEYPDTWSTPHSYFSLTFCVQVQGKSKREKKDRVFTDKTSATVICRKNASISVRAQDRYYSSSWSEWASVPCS
Experiment: cell-based or functional assay

Row | Binder | IC50, inhibition of IL-17 production from IL-23 stimulated mouse splenocytes
1 | B1 | 0.235 nM
2 | B2 | 0.027 nM
3 | B3 | 0.059 nM
4 | B4 | 1.41 nM
5 | B5 | 1.35 nM
6 | B6 | 0.51 nM
7 | B7 | 0.013 nM
8 | B8 | 0.471 nM
9 | B9 | 0.022 nM and 0.037 nM
10 | B10 | 0.1 nM
11 | B11 | 0.96 nM
12 | B12 | 0.234 nM
13 | B13 | 0.061 nM and 0.13 nM
14 | B14 | 0.126 nM
15 | B15 | 0.336 nM

Biological target: T2, natural human IL-23 from activated THP-1 cells (human, UniProt P29460 23-328)
T2 sequence 1: T1 sequence 1
T2 sequence 2: T1 sequence 2
Experiment: cell-based or functional assay

Row | Binder | IC50, inhibition of IL-17 production from IL-23 stimulated mouse splenocytes
16 | B1 | 5 nM
17 | B16 | 2.34 nM and 1.91 nM and 1.6 nM
18 | B3 | 0.281 nM and 0.138 nM
19 | B6 | 0.456 nM
20 | B9 | 0.085 nM and 0.031 nM
21 | B17 | 0.009 nM and 0.013 nM
22 | B11 | 2 nM
23 | B18 | 0.438 nM and 0.561 nM
24 | B14 | 0.232 nM
25 | B15 | 0.027 nM and 0.025 nM
26 | B19 | 8 nM

From patent US20120282269A1 (Boehringer Ingelheim, published 2012)
